These results are taken from article PMC12669963, “PGAM5 cleavage and oligomerization equilibrates mitochondrial dynamics under stress by regulating DRP1 function” (Journal of Cell Science, 2025).

This data set concerns the molecule itself. The experiment in a line: native gel or EMSA; native-PAGE of U2OS lysates (50 mM Tris-HCl pH 7.4, 150 mM NaCl, 0.5% Triton X-100), steady state or CCCP, immunoblot for endogenous PGAM5. In general terms: Mobility shift assays separate free from complexed probe on a gel.

B1: endogenous PGAM5 (natural protein, human (endogenous in HEK293 and U2OS), UniProt Q96HS1 1-289, looked up)
chain: MAFRQALQLAACGLAGGSAAVLFSAVAVGKPRAGGDAEPRPAEPPAWAGGARPGPGVWDPNWDRREPLSLINVRKRNVESGEEELASKLDHYKAKATRHIFLIRHSQYHVDGSLEKDRTLTPLGREQAELTGLRLASLGLKFNKIVHSSMTRAIETTDIISRHLPGVCKVSTDLLREGAPIEPDPPVSHWKPEAVQYYEDGARIEAAFRNYIHRADARQEEDSYEIFICHANVIRYIVCRALQFPPEGWLRLSLNNGSITHLVIRPNGRVALRTLGDTGFMPPDKITRS
notes: endogenous PGAM5; source: endogenous, HEK293 and U2OS lysate
For B1, the stoichiometry N (in general, the number of molecules, sites or subunits per partner or assembly) came to 2.
